Experimental data: publication PMC3985653, “A bacteriophage transcription regulator inhibits bacterial transcription initiation by σ-factor displacement”

B1: lacUV5 promoter [-64 to +36] (dsDNA)
DNA 1: GTTAGCTCACTCATTAGGCACCCCAGGCTTTACACTTTATGCTTCCGGCTCGTATAATGTGTGGAATTGTGAGCGGATAACAATTTCACACAGGAAACAG
DNA 2: CTGTTTCCTGTGTGAAATTGTTATCCGCTCACAATTCCACACATTATACGAGCCGGAAGCATAAAGTGTAAAGCCTGGGGTGCCTAATGAGTGAGCTAAC
B2: T5 N25 promoter [-65 to +35] (dsDNA)
DNA 1: TCTTTGCTCAAAGAATCATAAAAAATTTATTTGCTTTCAGGAAAATTTTTCTGTATAATAGATTCATAAATTTGAGAGAGGAGTTTAAATATGGCTGGTTC
DNA 2: GAACCAGCCATATTTAAACTCCTCTCTCAAATTTATGAATCTATTATACAGAAAAATTTTCCTGAAAGCAAATAAATTTTTTATGATTCTTTGAGCAAAGA

Key:
[1] = molecular target: T1, P7-sensitive core RNA polymerase (P7SE; hybrid E. coli core with Xo beta' N-terminus NLFN);sigma70 (Escherichia coli (397c cells, …, UniProt P0A7Z4;P0A8V2;Q2NZX9;P0A800;P00579 1-329;1-1342;1-10+P0A8T7:11-1407;2-91;1-613, internal_change|); experiment: EMSA; no P7; heparin-resistant open complex; conditions: protein: recombinant;recombinant; tags: C-6His on beta';N-6His-HMK in 32P-labelled experiments; unlabelled form purified separately; chain copies: 2;1;1;1;1; blunt
[2] = molecular target: T1, P7-sensitive core RNA polymerase (P7SE; …); experiment: KMnO4 footprinting; conditions: protein: recombinant;recombinant; tags: C-6His on beta';N-6His-HMK in 32P-labelled experiments; unlabelled form purified separately; chain copies: 2;1;1;1;1; label: 5'-32P on one strand; blunt

Binder	binding result [1]	binding result [2]
B1	binds	
B2		binds
